Measurements taken from paper PMC12382605, “Dominant negative ADA2 mutations cause ADA2 deficiency in heterozygous carriers” (The Journal of Experimental Medicine, 2025).

Experiments:
[1] = target: the molecule itself; assay: native gel or EMSA; supernatant of HEK293T transfected with one ADA2 construct (homozygous condition), collected after 48 h; NativePAGE 4-16% Bis-Tris, western blot with anti-ADA2; dimer band quantified relative to WT100%
[2] = target: T1, human WT ADA2, myc-FLAG-tagged (pCMV6) (human, UniProt Q9NZK5-1 30-511); assay: cell-based or functional assay
T1 sequence (looked up): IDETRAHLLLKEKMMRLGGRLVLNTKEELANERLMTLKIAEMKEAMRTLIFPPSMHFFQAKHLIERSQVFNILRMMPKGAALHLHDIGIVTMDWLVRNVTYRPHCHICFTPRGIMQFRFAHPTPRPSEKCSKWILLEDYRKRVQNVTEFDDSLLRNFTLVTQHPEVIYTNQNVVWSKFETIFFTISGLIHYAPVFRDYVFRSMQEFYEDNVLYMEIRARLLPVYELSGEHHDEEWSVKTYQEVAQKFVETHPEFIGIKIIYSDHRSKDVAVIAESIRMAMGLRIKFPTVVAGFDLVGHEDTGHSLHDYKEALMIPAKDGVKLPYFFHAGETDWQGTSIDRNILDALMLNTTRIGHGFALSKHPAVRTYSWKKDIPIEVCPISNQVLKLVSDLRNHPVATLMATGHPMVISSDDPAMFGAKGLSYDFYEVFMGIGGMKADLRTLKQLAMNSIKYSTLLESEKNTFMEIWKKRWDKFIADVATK

B1: ADA2 variant G47A, myc-FLAG-tagged (pCMV6) (enzyme, human, UniProt Q9NZK5-1 30-511, looked up)
chain: IDETRAHLLLKEKMMRLAGRLVLNTKEELANERLMTLKIAEMKEAMRTLIFPPSMHFFQAKHLIERSQVFNILRMMPKGAALHLHDIGIVTMDWLVRNVTYRPHCHICFTPRGIMQFRFAHPTPRPSEKCSKWILLEDYRKRVQNVTEFDDSLLRNFTLVTQHPEVIYTNQNVVWSKFETIFFTISGLIHYAPVFRDYVFRSMQEFYEDNVLYMEIRARLLPVYELSGEHHDEEWSVKTYQEVAQKFVETHPEFIGIKIIYSDHRSKDVAVIAESIRMAMGLRIKFPTVVAGFDLVGHEDTGHSLHDYKEALMIPAKDGVKLPYFFHAGETDWQGTSIDRNILDALMLNTTRIGHGFALSKHPAVRTYSWKKDIPIEVCPISNQVLKLVSDLRNHPVATLMATGHPMVISSDDPAMFGAKGLSYDFYEVFMGIGGMKADLRTLKQLAMNSIKYSTLLESEKNTFMEIWKKRWDKFIADVATK
notes: adenosine deaminase 2 (ADA2), human; site-directed mutant of the WT clone of transcript 3, NM_001282225 (OriGene RC238645); Pathogenic variant that occurs in patients; also called p.G47A; source: HEK293T, transfected; in supernatant and whole-cell lysate
Question: What does the source list for B1?
Answer: residual dimer in the supernatant (% of WT100%) [1]: ~48 % of WT100%; adenosine deaminase activity of whole-cell lysate and supernatant of HEK293T cotransfected with WT and variant ADA2 (heterozygous), relative to WT50% [2]: < 75 % of WT50%

B2: ADA2 variant G47V, myc-FLAG-tagged (pCMV6) (enzyme, human, UniProt Q9NZK5-1 30-511, looked up)
chain: IDETRAHLLLKEKMMRLVGRLVLNTKEELANERLMTLKIAEMKEAMRTLIFPPSMHFFQAKHLIERSQVFNILRMMPKGAALHLHDIGIVTMDWLVRNVTYRPHCHICFTPRGIMQFRFAHPTPRPSEKCSKWILLEDYRKRVQNVTEFDDSLLRNFTLVTQHPEVIYTNQNVVWSKFETIFFTISGLIHYAPVFRDYVFRSMQEFYEDNVLYMEIRARLLPVYELSGEHHDEEWSVKTYQEVAQKFVETHPEFIGIKIIYSDHRSKDVAVIAESIRMAMGLRIKFPTVVAGFDLVGHEDTGHSLHDYKEALMIPAKDGVKLPYFFHAGETDWQGTSIDRNILDALMLNTTRIGHGFALSKHPAVRTYSWKKDIPIEVCPISNQVLKLVSDLRNHPVATLMATGHPMVISSDDPAMFGAKGLSYDFYEVFMGIGGMKADLRTLKQLAMNSIKYSTLLESEKNTFMEIWKKRWDKFIADVATK
Question: B2 was tested. Which “adenosine deaminase activity of the supernatant of HEK293T cotransfected with WT and variant ADA2 (heterozygous), relative to WT50%” value [2] did it give?
Answer: Its value is 58 % of WT50%.

B3: ADA2 variant E328K, myc-FLAG-tagged (pCMV6) (enzyme, human, UniProt Q9NZK5-1 30-511, looked up)
chain: IDETRAHLLLKEKMMRLGGRLVLNTKEELANERLMTLKIAEMKEAMRTLIFPPSMHFFQAKHLIERSQVFNILRMMPKGAALHLHDIGIVTMDWLVRNVTYRPHCHICFTPRGIMQFRFAHPTPRPSEKCSKWILLEDYRKRVQNVTEFDDSLLRNFTLVTQHPEVIYTNQNVVWSKFETIFFTISGLIHYAPVFRDYVFRSMQEFYEDNVLYMEIRARLLPVYELSGEHHDEEWSVKTYQEVAQKFVETHPEFIGIKIIYSDHRSKDVAVIAESIRMAMGLRIKFPTVVAGFDLVGHKDTGHSLHDYKEALMIPAKDGVKLPYFFHAGETDWQGTSIDRNILDALMLNTTRIGHGFALSKHPAVRTYSWKKDIPIEVCPISNQVLKLVSDLRNHPVATLMATGHPMVISSDDPAMFGAKGLSYDFYEVFMGIGGMKADLRTLKQLAMNSIKYSTLLESEKNTFMEIWKKRWDKFIADVATK
Question: B3 was tested. Which “adenosine deaminase activity of whole-cell lysate and supernatant of HEK293T cotransfected with WT and variant ADA2 (heterozygous), relative to WT50%” value [2] did it give?
Answer: Its value is < 75 % of WT50%.

B4: ADA2 variant G47R, myc-FLAG-tagged (pCMV6) (enzyme, human, UniProt Q9NZK5-1 30-511, looked up)
chain: IDETRAHLLLKEKMMRLRGRLVLNTKEELANERLMTLKIAEMKEAMRTLIFPPSMHFFQAKHLIERSQVFNILRMMPKGAALHLHDIGIVTMDWLVRNVTYRPHCHICFTPRGIMQFRFAHPTPRPSEKCSKWILLEDYRKRVQNVTEFDDSLLRNFTLVTQHPEVIYTNQNVVWSKFETIFFTISGLIHYAPVFRDYVFRSMQEFYEDNVLYMEIRARLLPVYELSGEHHDEEWSVKTYQEVAQKFVETHPEFIGIKIIYSDHRSKDVAVIAESIRMAMGLRIKFPTVVAGFDLVGHEDTGHSLHDYKEALMIPAKDGVKLPYFFHAGETDWQGTSIDRNILDALMLNTTRIGHGFALSKHPAVRTYSWKKDIPIEVCPISNQVLKLVSDLRNHPVATLMATGHPMVISSDDPAMFGAKGLSYDFYEVFMGIGGMKADLRTLKQLAMNSIKYSTLLESEKNTFMEIWKKRWDKFIADVATK
notes: adenosine deaminase 2 (ADA2), human; site-directed mutant of the WT clone of transcript 3, NM_001282225 (OriGene RC238645); Patient variant; also called p.G47R; source: HEK293T, transfected; in supernatant and whole-cell lysate
Question: How did the “residual dimer in the supernatant (% of WT100%)” value [1] turn out when B4 was run?
Answer: Its value is ~53 % of WT100%.

Question: And the “adenosine deaminase activity of whole-cell lysate and supernatant of HEK293T cotransfected with WT and variant ADA2 (heterozygous), relative to WT50%” value [2]?
Answer: Its value is < 75 % of WT50%.

B5: ADA2 variant R169Q, myc-FLAG-tagged (pCMV6) (enzyme, human, UniProt Q9NZK5-1 30-511, looked up)
chain: IDETRAHLLLKEKMMRLGGRLVLNTKEELANERLMTLKIAEMKEAMRTLIFPPSMHFFQAKHLIERSQVFNILRMMPKGAALHLHDIGIVTMDWLVRNVTYRPHCHICFTPRGIMQFRFAHPTPRPSEKCSKWILLEDYQKRVQNVTEFDDSLLRNFTLVTQHPEVIYTNQNVVWSKFETIFFTISGLIHYAPVFRDYVFRSMQEFYEDNVLYMEIRARLLPVYELSGEHHDEEWSVKTYQEVAQKFVETHPEFIGIKIIYSDHRSKDVAVIAESIRMAMGLRIKFPTVVAGFDLVGHEDTGHSLHDYKEALMIPAKDGVKLPYFFHAGETDWQGTSIDRNILDALMLNTTRIGHGFALSKHPAVRTYSWKKDIPIEVCPISNQVLKLVSDLRNHPVATLMATGHPMVISSDDPAMFGAKGLSYDFYEVFMGIGGMKADLRTLKQLAMNSIKYSTLLESEKNTFMEIWKKRWDKFIADVATK
Question: Which “adenosine deaminase activity of the supernatant of HEK293T cotransfected with WT and variant ADA2 (heterozygous), relative to WT50%” value [2] does the source give for B5 here?
Answer: Its value is 23 % of WT50%.

B6: ADA2 variant G47W, myc-FLAG-tagged (pCMV6) (enzyme, human, UniProt Q9NZK5-1 30-511, looked up)
chain: IDETRAHLLLKEKMMRLWGRLVLNTKEELANERLMTLKIAEMKEAMRTLIFPPSMHFFQAKHLIERSQVFNILRMMPKGAALHLHDIGIVTMDWLVRNVTYRPHCHICFTPRGIMQFRFAHPTPRPSEKCSKWILLEDYRKRVQNVTEFDDSLLRNFTLVTQHPEVIYTNQNVVWSKFETIFFTISGLIHYAPVFRDYVFRSMQEFYEDNVLYMEIRARLLPVYELSGEHHDEEWSVKTYQEVAQKFVETHPEFIGIKIIYSDHRSKDVAVIAESIRMAMGLRIKFPTVVAGFDLVGHEDTGHSLHDYKEALMIPAKDGVKLPYFFHAGETDWQGTSIDRNILDALMLNTTRIGHGFALSKHPAVRTYSWKKDIPIEVCPISNQVLKLVSDLRNHPVATLMATGHPMVISSDDPAMFGAKGLSYDFYEVFMGIGGMKADLRTLKQLAMNSIKYSTLLESEKNTFMEIWKKRWDKFIADVATK
notes: adenosine deaminase 2 (ADA2), human; site-directed mutant of the WT clone of transcript 3, NM_001282225 (OriGene RC238645); Pathogenic variant that occurs in patients; source: HEK293T, transfected, in supernatant
Question: Which “residual dimer in the supernatant (% of WT100%)” value [1] does the source give for B6 here?
Answer: The value was ~9 % of WT100%.

B7: ADA2 variant Y453C, myc-FLAG-tagged (pCMV6) (enzyme, human, UniProt Q9NZK5-1 30-511, looked up)
chain: IDETRAHLLLKEKMMRLGGRLVLNTKEELANERLMTLKIAEMKEAMRTLIFPPSMHFFQAKHLIERSQVFNILRMMPKGAALHLHDIGIVTMDWLVRNVTYRPHCHICFTPRGIMQFRFAHPTPRPSEKCSKWILLEDYRKRVQNVTEFDDSLLRNFTLVTQHPEVIYTNQNVVWSKFETIFFTISGLIHYAPVFRDYVFRSMQEFYEDNVLYMEIRARLLPVYELSGEHHDEEWSVKTYQEVAQKFVETHPEFIGIKIIYSDHRSKDVAVIAESIRMAMGLRIKFPTVVAGFDLVGHEDTGHSLHDYKEALMIPAKDGVKLPYFFHAGETDWQGTSIDRNILDALMLNTTRIGHGFALSKHPAVRTYSWKKDIPIEVCPISNQVLKLVSDLRNHPVATLMATGHPMVISSDDPAMFGAKGLSCDFYEVFMGIGGMKADLRTLKQLAMNSIKYSTLLESEKNTFMEIWKKRWDKFIADVATK
Question: With B7 as the binder, how does the “adenosine deaminase activity of whole-cell lysate and supernatant of HEK293T cotransfected with WT and variant ADA2 (heterozygous), relative to WT50%” value [2] read?
Answer: Its value is 41 % of WT50%.
